Experimental data as given in a protein production outcome set (Wang et al. 2014).

Test: label from the status in PepcDB records
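Further: failed if final PepcDB status was selected cloned or expressed and not failed if soluble or beyond.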

Sequence	protein production
LNHVAEELCAATNESEVFSIITRSASHIISAQRISYCVPNYKDKCFEIRSVFSENEVMKSATVDMENSALQFVLQSGSPQFFENLAVTNFTDHLILSKNGLCSGWSVPVRVKGEIVGLLNAASNVKINERAQQLGVIKMLSGIMGVTLSRVNLQEQLEHQ	failed
MVNPTIPDDLLAKIAKTVAHKCWWDLQPLLRSGRRGRDVVYRPDVLKGANIFSMCEDPDDYQVDGSHHPSGPQEEGRHRAFFKRCVDAGNPTTMYFEALCVLTHERDIKGAINLLRPHVPSQAHATLACAILYIIDGNDYMGAIFLNLFGRNHYPLGTEETRDLCEEFLEDLKKFRPPYNNTYGSTFSYPNSHGIKTPDCALLCYIVSGPFKNVCNCCYLWWCARRVSQML	failed
MSDKPTIEQLLNNVSIESLNDMQEDSLAANAKASDVILLSPTGSGKTLGFLLPVFQQLSVSSNSIQALVLVPSRELALQIESVFKSLKTGFKVTCCYGGHPMDVEENNLAQSPALLIGTPGRIVDHINRRNINLDDVKTLVLDEFDKSLEMGFQEDMAIIIGRLTGIKKRILTSATQAIKIPDFTGMQSPVTLNYITGQASGLSVKTVLSDTKDKFDTLLRLLCQIGNESVIVFCNQRDEVENVCAYLTEHGIINNNFHGGLEQRYRESTLTKFRNGSTNVLVTTDLAARGLDIPDVKHVIHYQMPHKIDAFTHRNGRTARMGSTGNAYMLLHKDVLLPDYITSKPDILKLSDQKVKPLLPQWETLFISAGKKDKINKIDIVGFLSKKGLLEKDELGLIEVKDQFAYAAVKRNKVESVIKLVKEEKIKGRKVKIEVARETPKFEAE	failed
MNLFRKCLLILGLASPLYLGLGQTSAHAEAVPPLAPTTCQATNLPQPSTAAIRELTPTGTLRVAINTGNYVLATEADDFGPFGISVDIAHLLAKGLGVPSEFTVVQAAAVSFERVSKNLSDIGFFGVDPWRAESVDYTNPYIQIEGAYIVRQDSPILTLADVDRAGIQIVVGKNSVYNLFLDRNIHHAHLVQAPTSPEVTGFMLAHKFPVGAGIRNQLVADMKRYGGLRILSTSFMIIHQAMATGKGRPQGLSYLQSFISELKKSGCIQELITKYAVDDAVVSP	failed
MQAAAARIVTIAVCPGPAAAMQDAILQALRRDAADDAVALAREWVTNAPDHAAAHRWLALALQQQGQPALALDSIDTALTLTPEDADLHLLRAGALLATRDLSAADAALSRTTALDPNQFNAYVMQAHLAVARGDLDEAERLSRTAARLAPEHPQLLAVDGVVEMRRGQDDRALSLLTRAAEQLPDDARVLFSLGFAYLQKEHFAFAERAFERVIELNPPGTALRAFIAQLAQRQGRLDDALAAMQGVLDQPDGDLPAMRRLAGEMELQAGRPDQAAAHLRLALAHWPADRRTLHALLTAWERLGAVDDARDTLDAALATSATAHDLWLARLAVEPVGGPQAQAVIERWLLAMPEHLPALEALMRVHDMQGQADEAEMVARQIVAVEPGRISGEQRIVEALLQRDPPAAIACVESLIESLPAPQQTVLRPWLGNVQDRAGQPDAAVGTWMQFHREQAQHRLPLPPQAARQPTQWPALGSIPDTVTARPLFVWGTPGSHVERLVAVMGAATPLVRGDRYGITPPSDALQSYRTLEQLASGELAPTALVEGWKAQLPRRGIDDGNVIDWLLWWDNTLLTALRPHLPEGRLAIALRDPRDMLLDWLSAGASAPLALQSPQQATDWLLIALEQLATLHERDLYPHRIIRLDGIEDDPQGISTALEQAFGLSFPLVEPRGPARLASGRWRDYRGVLGAQFDLLTLIAVRFGYPQD	failed
MKRTFKMALIASLAVGGSYVLYGSQNKEELSDLALSNVEALTLGTKDCMYQRNSRCYELVVGPPGEPVIIETSEEANWVNRYTIPE	failed
MLWARLVGLARLEARALSKKERRSLLERLKPYYTRIPFSEKADLRLVKARTDSGEYEIITVDGVPCLFEWSDGRIYPTLQCLKAFGVDWLKGVVLVDKGAAIALAKGAHLMIPGVVGVEGSFTRGDVVAALYHETRTPVMVGVAEVDSSALEKLYREKARGRAVRRVHRLGDALWELAQEVGKRLS	not failed
MGVALLLLVGGAELLVRSALRLAQRLHVRPLIIGLSLVAFGSTAPQLTVSLQAAYQGAPDVAVGSVIGSNIFNVLVILGLAALIIPLRVSRQLVRLDIPLMILASGLVYALSANAHLGRVEGALLLLGLAGYLAMLWHQSRHYARTYPAPDAARSGAGRFWSGTLLQILVGLGLLSLAGHLLLEAAIEVATDLGLSERIIGLTVVAICTSLPELAAALIAALRGEREIAVGTVIGSNLFNLLAVLGLTALITPEPLSISPNALSFDLPVMLGVAALSLPVFYSGYRITRAEGLVFLCLYLAYGLHVAAFTMGMPLAGRLERLMLFYVLPVLATVLLYTTVRAWRRQH	failed
MSLKIDAVDLFYLSMPEVTDAADGSQDALLVRVAAGGHIGWGECEAAPLPSIAAFVCPKSHGVCRPVSDSVLGQRLDGPDDIARIAALVGYNSMDLLQAPHMLSGIEMALWDLLGRRLSAPAWALLGYSASHGKRPYASLLFGDTPQETLERARAARRDGFAAVKFGWGPIGRGTVAADADQIMAAREGLGPDGDLMVDVGQIFGEDVEAAAARLPTLDAAGVLWLEEPFDAGALAAHAALAGRGARVRIAGGEAAHNFHMAQHLMDYGRIGFIQIDCGRIGGLGPAKRVADAAQARGITYVNHTFTSHLALSASLQPFAGLEADRICEYPAAPQQLALDITGDHIRPDAEGLIRAPEAPGLGLQVAASALRRYLVETEIRIGGQLIYRTPQLEGHHHHHH	not failed
MDKRIATIILSIVNIIGIFEFPLYESFIGFFFISSALSILYESQLSLIVPTVLFASLVLLHIITIQLQKLIILSILMLISIIGKNNKWIYSILITLAPGLIINNLYLLLIVLALLIPLLIKLGGEPRAIIISGILYLIYSGIIFPNNEALANQISQISYFYLMFGIIGIIVEDKRITRITLRKILPYLSFIPASFASIMLGYPSDSSFIYWSASSFYFSHLYLPWIYEIGYNSNQHLIASWFLAYLLTLIIKNPLITAEVFLGIFTFLSGLISYYVFKRLNLKYPLLFSLLYQINIFNPIISHSISVFSYAFLPLVLFFAYNKNKVLYSILTLTAASSIPIFISTLVIPLVYRRYYFLLYALGVNAFWLIPFLIFGYDKFTFNVSNIEILISIILVSISVLLYQLRFKNIEILYMIFISFVLLILGINTGPLILLATILTLGSLRDISILYLTLLSGLIILSATSFSYGVISGYANTTFYTYNLPNLPKPGEYGFGITTLVNDLNLTASGMPTESISYNVRYFIYNSRVIENPLYFGFPIPAIPNYTPQLTFSYIYSNSSVKVIYSPFNKPLGLMVYSNVTPSKISIVFPTRIENISGIKGLVKNYTIQIITNTSLTIIGGKVTVDNKSIFSSYYKPKIVTSIMIGEITEVIDSNYSIYLPIHESLTINGKVVNHPIILPPGKYTIVISDEKIEYVSYASIFLTIVSLVLLIRRGMKV	failed
MKKAIYLLILCIFGLFSVYFTYAENISDISNTTSKNISSSNISHNNIIYSNINYNEILYIIVKNNTAYVKDVINGTNNPYHIKSAGIILYEKIYGYNYSNLLYRNSSNSLIFYYNFSVDKINYTINITIPQIEDYVGSLGGPIRMRIPPNNVKIIIVAENKLAETNGKYILEYNKTDKKVISLIYLDNVSSICNIYYTKFFNSSEFYGYAVANVTSITENRTSYTIKNPKGTFTFDRKYNVFVSNKTAYLKEPYLYVKLYNSTIDDIIILENNKISENSTKFMSNYLLSFIGIIIGFGIIGLAIYLSKRGRK	failed
MGLSHKFQVKQFVEISPYSQSRLRHEQPQTPIHSDITTYHCHRGQFDIVAGGLPCQGTSNAGNRQGLDDPRSALWAEQFRIIESDRPAIALIENPTGLLYRGLEQIICDLDSIGYMGEWNCISAQQVGLPHQRKRIFIIAYSNGLFNQVVPAPWSNQIGNHITQVRLSLETRSYQPGISKVASRIPIGVAKNIPGNYDARRAYGLSCSPRQAAVAWKRIDYLCSLLEHHHHHH	failed
MHNAGKQVAAPLETPMPAATAALLAERADHPLYVASVEKGMRVLEAFDAARDSLSLTDIVQLTGMGKSAAQRFTHTWEALGYLAKDPQSRRYRLGPKVVELSYYFLRSDHLVSLAAPHLVALREHCGLAVNMSVLSGDDMIYLLRLPSRQLTLVEMLPGRRMPAWSNSAGRMLLSQRDDASVRDLLARAAPQLYTPRTQTDPQALLAEIRQAREDGYAITQDQVLLNQMGVATLLRDERRQPLAAISVTAAADEYPRARLVAEIVPQMLKAAYAICGA	failed
MSLRTGKTNVIALVLSVDEELMGFTSQMVFGITEVLSTTQYHLVVTPHIHAKDSMVPIRYILETGSADGVIISKIEPNDPRVRFMTERNMPFVTHGRSDMGIEHAFHDFDNEAYAYEAVERLAQCGRKRIAVIVPPSRFSFHDHARKGFNRGIRDFGLTEFPIDAVTIETPLEKIRDFGQRLMQSSDRPDGIVSISGSSTIALVAGFEAAGVKIGEDVDIVSKQSAEFLNWIKPQIHTVNEDIKLAGRELAKALLARINGEAAETLQSISGPVWSSMAPKEGHHHHHH	not failed
GDIEQAAGHVVDGLSHLEVHPDVPDGIRALRERGFRLVTMTNGSSDLSKRLLGRAGLADCFESHLDASGPQRWKPAQAAYQYVVEQVGVRLDEAVLVAVHPWDVDGAQRAGLGGAWLRRDAADYPQVMLPPTYTVGNLRELAETLA	failed
MTRMQLHRLRYLLADVFGIVASYLSYNTLRYLTEEQERIYSTLSEYLFNAKSLWVGILYLLFWLSLFALSGYYNKPIAKSRISELLTTVASVLVGSVVVFLLLVVDDIVHDTALYLRLFFMMVATVLPWVYFPRLWVTTFGIKERKKTKGYHRVLLIGSGTIAEETASWLKSVNDMATTRLHFVPPTTREGFEQSLKSFATLVAEAVQESKPHQIILAVDCPDASFISLLLYQLYPFHMPVCVPMRSMLFAGAKVNVQGMKGEPMVDMTATNMSECAKSIKWFADRLFSLLMLILLIPVYAVIAVLVKRSSRGPVFFGQERIGLHGRPFTIYKFRTMYLDAEKDGPSLSFDGDSRVTPIGRILRKYRMDELPQFWNVLRGDMSFVGPRPERAFYIRQLVERAPYYYLLHNVRPGITSWGMVRYGYASTPDEMLERLQYDFLYYENMSLRLDIEVLLYTCQTIFKGLGK	failed
MSLSSGRTVPTRSHGLGKEGVSTTGASQVEFGDPELTARINDAMVQVEELLHTELSSGEDFLVDIVMHLTRAGGKRFRPMFALLASEFGEKPLSENVIKAAVVVEITHLATLYHDDVMDEASMRRGVPSANARWDNSVAILAGDILLAHASGLMSQLGTDTVAHFAETFGELVTGQMRETVGPRDTDPIEHYTNVIREKTGVLIASAGYLGAMHAGAAPEHIDALKNFGAAVGMIFQIVDDIIDIFSETHESGKTPGTDLREGVFTLPVLYALREDTPVGAELRDILTGPLEDDETVNHVLELLSQSGGRQAALDEVYRYMDIANAELDRLPDSTVKEALRNLATFTVKRVGEGHHHHHH	not failed
MTPGEVRRLYFIIRTFLSYGLDELIPKMRITLPLRLWRYSLFWMPNRHKDKLLGERLRLALQELGPVWIKFGQMLSTRRDLFPPHIADQLALLQDKVAPFDGKLAKQQIEAAMGGLPVEAWFDDFEIKPLASASIAQVHTARLKSNGKEVVIKVIRPDILPVIKADLKLIYRLARWVPRLLPDGRRLRPTEVVREYEKTLIDELNLLRESANAIQLRRNFEDSPMLYIPEVYPDYCSEGMMVMERIYGIPVSDVAALEKNGTNMKLLAERGVQVFFTQVFRDSFFHADMHPGNIFVSYEHPENPKYIGIDCGIVGSLNKEDKRYLAENFIAFFNRDYRKVAELHVDSGWVPPDTNVEEFEFAIRTVCEPIFEKPLAEISFGHVLLNLFNTARRFNMEVQPQLVLLQKTLLYVEGVGRQLYPQLDLWKTAKPFLESWIKDQVGIPALVRAFKEKAPFWVEKMPELPELVYDSLRQGKYLQHSVDKIARELQSNHVRQGQSRYFLGIGATLVLSGTFLLVSRPEWGLMPGWLMAGGLIAWFVGWRKTR	failed
QQMETGDQRFGDLVFRQLAPNVWQHTSYLDMPGFGAVASNGLIVRDGGRVLVVDTAWTDDQTAQILNWIKQEINLPVALAVVTHAHQDKMGGMDALHAAGIATYANALSNQLAPQEGMVAAQHSLTFAANGWVEPATAPNFGPLKVFYPGPGHTSDNITVGIDGTDIAFGGCLIKDSKAKSLGNLGDADTEHYAASARAFGAAFPKASMIVMSHSAPDSRAAITHTARMADKLR	not failed
